Where two headings read alike, the source gives them in different places.
Tests used:
Assay in all cases: UV peptide exchange + HLA class I ELISA
HLA-B*07:02 (human) = molecular target: HLA-B*07:02 (human)
HLA-A*01:01 (human) = conditions: remark: other sources report otherwise
HLA-A*02:01 (human) = molecular target: HLA-A*02:01 (human)
HLA-A*24:02 (human) = molecular target: HLA-A*24:02 (human)
HLA-A*11:01 (human) = molecular target: HLA-A*11:01 (human)
HLA-A*03:01 (human) = molecular target: HLA-A*03:01 (human)
HLA-B*08:01 (human) = conditions: remark: other sources report otherwise
[1] = remark: other sources report otherwise

B1: p723-731 (peptide)
peptide: LPIHTAELL
modifications: not checked
B1 gave a Bindings% (of positive control) (HLA-B*07:02 (human); [1]) of 32.3%.

B2: x103-111 (peptide)
peptide: MSTTDLEAY
modifications: not checked
Work on B2 yielded a Bindings% (of positive control) (HLA-A*01:01 (human)) of 30.2%.

B3: p124-133 (peptide)
peptide: PLDKGIKPYY
modifications: not checked
B3 gave a Bindings% (of positive control) (HLA-A*01:01 (human)) of 26.7%.

B4: x105-113 (peptide)
peptide: TTDLEAYFK
modifications: not checked
B4 showed a Bindings% (of positive control) (HLA-A*01:01 (human)) of 41.7%.

B5: p407-415 (peptide)
peptide: FAVPNLQSL
modifications: not checked
In the case of B5, the Bindings% (of positive control) (HLA-A*02:01 (human)) is reported as 33.3%.

B6: p697-706 (peptide)
peptide: VFADATPTGW
modifications: not checked
B6 gave a Bindings% (of positive control) (HLA-A*24:02 (human)) of 40.4%.

B7: x104-113 (peptide)
peptide: STTDLEAYFK
modifications: not checked
With B7 the Bindings% (of positive control) (HLA-A*11:01 (human); [1]) was 98.7%.

B8: p829-837 (peptide)
peptide: RVHFASPLH
modifications: not checked
Binder B8 has a Bindings% (of positive control) (HLA-A*03:01 (human)) of 68.8% and a Bindings% (of positive control) (HLA-A*11:01 (human)) of 39.5%.

B9: p650-658 (peptide)
peptide: GYPALMPLY
modifications: not checked
In the case of B9, the Bindings% (of positive control) (HLA-A*24:02 (human)) is reported as 42.7%.

B10: p649-658 (peptide)
peptide: CGYPALMPLY
modifications: not checked
In the case of B10, the Bindings% (of positive control) (HLA-A*24:02 (human)) is reported as 38.1%.

B11: x92-100 (peptide)
peptide: VLHKRTLGL
modifications: not checked
Work on B11 yielded a Bindings% (of positive control) (HLA-B*08:01 (human)) of 60.8%.

B12: p167-175 (peptide)
peptide: SFCGSPYSW
modifications: not checked
In the case of B12, the Bindings% (of positive control) (HLA-A*24:02 (human)) is reported as 84%.

B13: x15-23 (peptide)
peptide: VLCLRPVGA
modifications: not checked
Binder B13 has a Bindings% (of positive control) (HLA-A*02:01 (human); [1]) of 31.7%.

B14: p404-412 (peptide)
peptide: WPKFAVPNL
modifications: not checked
With B14 the Bindings% (of positive control) (HLA-B*07:02 (human); [1]) was 70.5%.

B15: x52-60 (peptide)
peptide: HLSLRGLPV
modifications: not checked
Work on B15 yielded a Bindings% (of positive control) (HLA-B*08:01 (human)) of 79.8%.

B16: x58-66 (peptide)
peptide: LPVCAFSSA
modifications: not checked
In the case of B16, the Bindings% (of positive control) (HLA-B*07:02 (human); [1]) is reported as 52.8%.

B17: x67-75 (peptide)
peptide: GPCALRFTS
modifications: not checked
Work on B17 yielded a Bindings% (of positive control) (HLA-B*07:02 (human)) of 26.9%.

— US20230242590A1
